Measurements: article PMC3506534, “LL-37 Induces Polymerization and Bundling of Actin and Affects Actin Structure” (PLoS ONE, 2012)

Molecular target: rabbit skeletal muscle α-actin (rabbit) (UniProt P68135)

Sequence of DNase1 (P00639 23-282): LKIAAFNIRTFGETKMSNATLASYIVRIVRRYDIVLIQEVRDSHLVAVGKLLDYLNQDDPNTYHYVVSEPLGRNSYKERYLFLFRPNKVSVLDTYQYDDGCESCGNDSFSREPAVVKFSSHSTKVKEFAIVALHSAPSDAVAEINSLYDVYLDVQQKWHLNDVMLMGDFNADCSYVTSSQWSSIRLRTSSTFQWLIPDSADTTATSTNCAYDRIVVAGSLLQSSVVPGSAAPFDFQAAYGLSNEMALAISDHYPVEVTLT

With “DNase1 (from UniProt P00639 23-282) (enzyme)” the disappearance of Mg-F-actin bundles (bundled by 9 µM LL-37) and depolymerization of the filaments after 6 µM DNase1 (low and high speed sedimentation) was 100%.
